# Target: the molecule itself
# Experiment: aggregation assay of S2 cells transfected with fasciclin IV (homophilic adhesion)
# Excerpt: To ask whether fasciclin IV can function as a homophilic cell adhesion molecule, the fasciclin IV cDNA with the complete ORF was placed under the control of the inducible metallothionein promoter (Bunch et al. 1988). transfected into S2 cells, and assayed for its ability to promote adhesion in normally non-adhesive S2 cells. Following induction with copper, fasciclin IV was synthesized in these S2 cells as shown by Western blot analysis and cell surface staining of induced S2 cells with the polyclonal antiserum described above.
# A restriction fragment containing the full length fasciclin IV cDNA was cloned into pRmHa-3 (Bunch et al, 1988) and co-transformed into Drosophila S2 cells (Schneider, 1972) with the plasmid pPC4 (Jokerst et al., 1989), which confers a-amanitin resistance. S2 cells were transformed using the Lipofectin Reagent and recommended protocol (BRL) with minor modifications. All other S2 cell manipulations are essentially as described (Snow et al., 1989), including adhesion assays. Fasciclin IV expression in transformed cell lines was induced for adhesion assays and histology by adding CuSO₄ to 0.7 mM and incubating for at least 48 hrs. […] Amount of protein per lane in each sample loaded: fasciclin IV protein, ˜5 ng; S2 cell membranes, […]; grasshopper membranes […]. […]
protein,measurement,value
"Grasshopper fasciclin IV (now called G-Semaphorin I) (other, N-linked oligosaccharides (shown by N-Glycanase treatment), also called 6F8 antigen; grasshopper Semaphorin I) WVNDVSPKMYVQFGEERVQRFLGNESHKDHFKLLEKDHNSLLVGARNIVYNISLRDLTEFTEQRIEWHSSGAHRELCYLKGKSEDDCQNYIRVLAKIDDDRVLICGTNAYKPLCRHYALKDGDYVVEKEYEGRGLCPFDPDHNSTAIYSEGQLYSATVADFSGTDPLIYRGPLRTERSDLKQLNAPNFVNTMEYNDFIFFFFRETAVEYINCGKAIYSRVARVCKHDKGGPHQGGDRWTSFLKSRLNCSVPGDYPFYFNEIQSTSDIIEGNYGGQVEKLIYGVFTTPVNSIGGSAVCAFSMKSILESFDGPFKEQETMNSNWLAVPSLKVPEPRPGQCVNDSRTLPDVSVNFVKSHTLMDEAVPAFFTRPILIRISLQYRFTKIAVDQQVRTPDGKAYDVLFIGTDDGKVIKALNSASFDSSDTVDSVVIEELQVLPPGVPVKNLYVVRMDGDDSKLVVVSDDEILAIKLHRCGSDKITNCRECVSLQDPYCAWDNVELKCTAVGSPDWSAGKRRFIQNISLGEHKACGGRPQTEIVASPVPTQPTTKSSGDPVHSIHQAEFEPEIDNEIVIGVDDSNVIPNTLAEINHAGSKLPSSQEKLPIYTAETLTIAIVTSCLGALVVGFISGFLFSRRCRGEDYTDMPFPDQRHQLNRLTEAGLNADSPYLPPCANNKAAINLVLNVPPKNANGKNANSSAENKPIQKVKKTYI",binding result,no binding
